# Experimental data: article PMC5141469 (Scientific Reports, 2016)
# T1: YajC (E. coli, UniProt P0ADZ7 1-110)
# T1 construct: YajC of E. coli; also called subunit of SecDF-YajC; subunit of the holo-translocon (HTL)
# T1 sequence (looked up): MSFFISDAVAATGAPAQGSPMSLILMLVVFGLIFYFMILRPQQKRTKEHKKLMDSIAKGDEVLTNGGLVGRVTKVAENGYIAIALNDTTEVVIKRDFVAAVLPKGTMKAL
# B1: SecF (natural protein, E. coli, UniProt P0AG93 1-323, looked up)
# chain: MAQEYTVEQLNHGRKVYDFMRWDYWAFGISGLLLIAAIVIMGVRGFNWGLDFTGGTVIEITLEKPAEIDVMRDALQKAGFEEPMLQNFGSSHDIMVRMPPAEGETGGQVLGSQVLKVINESTNQNAAVKRIEFVGPSVGADLAQTGAMALMAALLSILVYVGFRFEWRLAAGVVIALAHDVIITLGILSLFHIEIDLTIVASLMSVIGYSLNDSIVVSDRIRENFRKIRRGTPYEIFNVSLTQTLHRTLITSGTTLMVILMLYLFGGPVLEGFSLTMLIGVSIGTASSIYVASALALKLGMKREHMLQQKVEKEGADQPSILP
# notes: SecF of E. coli; also called subunit of SecDF; subunit of the holo-translocon (HTL)
# B2: SecY (natural protein, E. coli, UniProt P0AGA2 1-443, looked up)
# chain: MAKQPGLDFQSAKGGLGELKRRLLFVIGALIVFRIGSFIPIPGIDAAVLAKLLEQQRGTIIEMFNMFSGGALSRASIFALGIMPYISASIIIQLLTVVHPTLAEIKKEGESGRRKISQYTRYGTLVLAIFQSIGIATGLPNMPGMQGLVINPGFAFYFTAVVSLVTGTMFLMWLGEQITERGIGNGISIIIFAGIVAGLPPAIAHTIEQARQGDLHFLVLLLVAVLVFAVTFFVVFVERGQRRIVVNYAKRQQGRRVYAAQSTHLPLKVNMAGVIPAIFASSIILFPATIASWFGGGTGWNWLTTISLYLQPGQPLYVLLYASAIIFFCFFYTALVFNPRETADNLKKSGAFVPGIRPGEQTAKYIDKVMTRLTLVGALYITFICLIPEFMRDAMKVPFYFGGTSLLIVVVVIMDFMAQVQTLMMSSQYESALKKANLKGYGR
# notes: SecY, subunit of the E. coli SecYEG protein-conducting channel; also called subunit of SecYEG; subunit of the holo-translocon (HTL)
# B3: SecE (natural protein, E. coli, UniProt P0AG96 1-127, looked up)
# chain: MSANTEAQGSGRGLEAMKWVVVVALLLVAIVGNYLYRDIMLPLRALAVVILIAAAGGVALLTTKGKATVAFAREARTEVRKVIWPTRQETLHTTLIVAAVTAVMSLILWGLDGILVRLVSFITGLRF
# notes: SecE, subunit of the E. coli SecYEG protein-conducting channel; also called subunit of SecYEG; subunit of the holo-translocon (HTL); not shown: His6, N-terminal, kept
# B4: SecG (natural protein, E. coli, UniProt P0AG99 1-110, looked up)
# chain: MYEALLVVFLIVAIGLVGLIMLQQGKGADMGASFGAGASATLFGSSGSGNFMTRMTALLATLFFIISLVLGNINSNKTNKGSEWENLSAPAKTEQTQPAAPAKPTSDIPN
# notes: SecG, subunit of the E. coli SecYEG protein-conducting channel; also called subunit of SecYEG; subunit of the holo-translocon (HTL)
# B5: YidC (natural protein, E. coli, UniProt P25714 1-548, looked up)
# chain: MDSQRNLLVIALLFVSFMIWQAWEQDKNPQPQAQQTTQTTTTAAGSAADQGVPASGQGKLISVKTDVLDLTINTRGGDVEQALLPAYPKELNSTQPFQLLETSPQFIYQAQSGLTGRDGPDNPANGPRPLYNVEKDAYVLAEGQNELQVPMTYTDAAGNTFTKTFVLKRGDYAVNVNYNVQNAGEKPLEISSFGQLKQSITLPPHLDTGSSNFALHTFRGAAYSTPDEKYEKYKFDTIADNENLNISSKGGWVAMLQQYFATAWIPHNDGTNNFYTANLGNGIAAIGYKSQPVLVQPGQTGAMNSTLWVGPEIQDKMAAVAPHLDLTVDYGWLWFISQPLFKLLKWIHSFVGNWGFSIIIITFIVRGIMYPLTKAQYTSMAKMRMLQPKIQAMRERLGDDKQRISQEMMALYKAEKVNPLGGCFPLLIQMPIFLALYYMLMGSVELRQAPFALWIHDLSAQDPYYILPILMGVTMFFIQKMSPTTVTDPMQQKIMTFMPVIFTVFFLWFPSGLVLYYIVSNLVTIIQQQLIYRGLEKRGLHSREKKKS
# notes: YidC of E. coli; also called membrane 'insertase' YidC; subunit of the holo-translocon (HTL); not shown: His6, C-terminal, kept
# B6: SecD (natural protein, E. coli, UniProt P0AG90 1-615, looked up)
# chain: MLNRYPLWKYVMLIVVIVIGLLYALPNLFGEDPAVQITGARGVAASEQTLIQVQKTLQEEKITAKSVALEEGAILARFDSTDTQLRAREALMGVMGDKYVVALNLAPATPRWLAAIHAEPMKLGLDLRGGVHFLMEVDMDTALGKLQEQNIDSLRSDLREKGIPYTTVRKENNYGLSITFRDAKARDEAIAYLSKRHPDLVISSQGSNQLRAVMSDARLSEAREYAVQQNINILRNRVNQLGVAEPVVQRQGADRIVVELPGIQDTARAKEILGATATLEFRLVNTNVDQAAAASGRVPGDSEVKQTREGQPVVLYKRVILTGDHITDSTSSQDEYNQPQVNISLDSAGGNIMSNFTKDNIGKPMATLFVEYKDSGKKDANGRAVLVKQEEVINIANIQSRLGNSFRITGINNPNEARQLSLLLRAGALIAPIQIVEERTIGPTLGMQNIEQGLEACLAGLLVSILFMIIFYKKFGLIATSALIANLILIVGIMSLLPGATLSMPGIAGIVLTLAVAVDANVLINERIKEELSNGRTVQQAIDEGYRGAFSSIFDANITTLIKVIILYAVGTGAIKGFAITTGIGVATSMFTAIVGTRAIVNLLYGGKRVKKLSI
# notes: SecD of E. coli; also called subunit of SecDF; subunit of the holo-translocon (HTL); not shown: His6, C-terminal, kept
# Biological target: T1, YajC
# Assay: SEC + AUC; co-purified detergent-solubilised (DDM) HTL; ultracentrifugation 16 h at 35,000 rpm, 10 °C, absorbance at 280 nm and interference
# Conditions: both partners purified
row,Binder,stoichiometry N
1,B1,1
2,B2,1
3,B3,1
4,B4,1
5,B5,1
6,B6,1
